Source: patent US20240247080A1, “GLP1/GIP/NPY2 RECEPTOR TRIPLE AGONISTS” (Boehringer Ingelheim International GmbH, priority 2022, published 2024)
Starred links: 1 amine or outer side, 2 acyl side, 3 side chain; linkers in the order of their positions; H or OH if unused. Non-standard residues stand in square brackets, D forms with d. Groups on a side chain read outwards from the residue. No end group written: not given here. *: point of attachment. C20 diacid = O=C(O)CCCCCCCCCCCCCCCCCCC(=O)*; C18 diacid = O=C(O)CCCCCCCCCCCCCCCCC(=O)*; γGlu = O=C(O)[C@H](CCC(=O)[*:2])N[*:1]; εLys = N[C@@H](CCCCN[*:1])C(=O)[*:2]; Aib = CC(C)(N)C(=O)O

Tests used:
Test in all cases: cell-based or functional assay
GLP-1 receptor = GLP-1 receptor (human (printed as hGLP1R), UniProt P43220 24-463)
GIP receptor = target: T1, GIP receptor (human (printed as hGIPR), UniProt P48546 22-466)
T1 sequence (looked up): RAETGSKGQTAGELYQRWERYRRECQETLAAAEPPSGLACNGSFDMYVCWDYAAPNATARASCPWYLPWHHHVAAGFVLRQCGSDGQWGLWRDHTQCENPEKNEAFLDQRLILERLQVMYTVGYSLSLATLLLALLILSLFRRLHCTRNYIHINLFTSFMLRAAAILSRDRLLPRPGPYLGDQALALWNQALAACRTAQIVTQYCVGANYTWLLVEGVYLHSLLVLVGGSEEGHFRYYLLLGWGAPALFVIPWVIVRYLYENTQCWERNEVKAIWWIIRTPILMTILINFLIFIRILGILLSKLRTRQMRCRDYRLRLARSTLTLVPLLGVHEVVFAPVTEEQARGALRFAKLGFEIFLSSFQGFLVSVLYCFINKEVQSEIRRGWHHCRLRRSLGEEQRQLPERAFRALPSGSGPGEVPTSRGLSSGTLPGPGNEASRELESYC

NPY2 receptor = target: T2, NPY2 receptor (human (printed as hNPY2R), UniProt P49146 1-381)
T2 sequence (looked up): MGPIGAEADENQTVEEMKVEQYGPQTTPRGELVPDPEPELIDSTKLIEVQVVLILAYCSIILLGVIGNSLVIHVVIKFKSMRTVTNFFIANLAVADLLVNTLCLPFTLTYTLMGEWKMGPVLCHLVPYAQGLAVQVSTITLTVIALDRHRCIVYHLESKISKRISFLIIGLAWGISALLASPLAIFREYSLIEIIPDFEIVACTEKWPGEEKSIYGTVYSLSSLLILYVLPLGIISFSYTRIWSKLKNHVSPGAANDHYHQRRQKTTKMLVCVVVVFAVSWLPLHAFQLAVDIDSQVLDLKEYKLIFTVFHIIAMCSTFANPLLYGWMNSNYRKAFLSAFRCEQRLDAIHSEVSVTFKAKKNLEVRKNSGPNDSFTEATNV

Row | Binder | EC50 hGLP1R 0.5% hP (CreLuc) (GLP-1 receptor) [nM] | EC50 hGLP1R 100% hP (CreLuc) (GLP-1 receptor) [nM] | EC50 hGIPR 0.5% hP (CreLuc) (GIP receptor) [nM] | EC50 hGIPR 100% hP (CreLuc) (GIP receptor) [nM] | EC50 hNPY2R 0.5% hP (CreLuc) (NPY2 receptor) [nM] | EC50 hNPY2R 100% hP (CreLuc) (NPY2 receptor) [nM]
1 | YXEGTFTSDYSIXLEKQAQDAFVEWLIKGGPSSGASLRHYYNWLTRQRY (Aib at 2, 13; D-Asp at 20; K28 side chain carries C20DA-gGlu-gGlu-gGlu-gGlu-gGlu-gGlu-eLys; C-terminal amide) [Compound 211] | 0.74 | 25.9 | 0.85 | 9.79 | 11.2 | 56.3
2 | YXEGTFTSDYSIXLELQAQXAFVEWLIKGGPSSGASLRHYYNWLTRQRY (Aib at 2, 13, 20; K28 side chain carries C20DA-gGlu-gGlu-gGlu-gGlu-gGlu-gGlu-eLys; C-terminal amide) [Compound 209] | 0.48 | 16.7 | 0.81 | 8.57 | 35.2 | 171
3 | Y[Aib]EGTFTSDYSI[Aib]LE[Aib]QAQ[Aib]AFVEWLIKGGPSSGASLRHYYNWLTRQRY-NH2 (not fully specified (residue 28); also: TFA salt) [Compound 199] | 1.26 | 13.8 | 0.94 | 5.5 | 30 | 106
4 | Y[Aib]EGTFTSDYSI[Aib]LEKQAQ[Aib]AFVEWLIKGGPSYYASLRHYYNWLTRQRY-NH2 (not fully specified (residue 28); also: TFA salt) [Compound 203] | 0.33 | 27 | 0.5 | 12.4 | 9.07 | 54.1
5 | Y[Aib]EGTFTSDYSI[Aib]LEKQAQ[Aib]AFVEWLIKGGPEEPASLRHYYNWLTRQRY-NH2 (not fully specified (residue 28); also: TFA salt) [Compound 206] | 0.43 | 17.2 | 0.25 | 2.61 | 13.4 | 61.7
6 | Y[Aib]EGTFTSDYSI[Aib]LEKQAQ[Aib]EFVQWLIKGGPSEGASLRHYYNWLTRQRY-NH2 (not fully specified (residue 28); also: TFA salt) [Compound 207] | 0.36 | 12.7 | 0.63 | 1.66 | 11 | 50.3
7 | Y[Aib]EGTFTSDYSI[Aib]LEKQAQ[Aib]EFVQWLIK([γGlu-γGlu-γGlu-γGlu-C18 diacid])GGPSEGASLRHYYNWLTRQRY-NH2 (also: TFA salt) [Compound 202] | 0.21 | 10.4 | 0.26 | 1.81 | 12.9 | 64.5
8 | Y[Aib]EGTFTSDYSI[Aib]LEKQAQ[Aib]EFVEWLIKGGPSSGASLRHYYNWLTRQRY-NH2 (not fully specified (residue 28); also: TFA salt) [Compound 201] | 0.28 | 10.4 | 0.49 | 1.03 | 16.3 | 31
9 | Y[Aib]EGTFTSDYSI[Aib]LEKQAE[Aib]AFVQWLIK([εLys-γGlu-γGlu-γGlu-γGlu-γGlu-C20 diacid])GGPSEGASLRHYYNWLTRQRY-NH2 (also: TFA salt) [Compound 200] | 0.48 | 25.8 | 0.37 | 3.56 | 12.1 | 64.3
